From patent US20220395548A1

Legend:
[1] = target: gp120 of HIV-1NL4-3 (on virus particles) (HIV-1 (NL4-3)); assay: immunoblot with 2G12, band value, 2nd column: Day 8, - MoMo30 by the order of the lanes above
[2] = target: gp120 of HIV-1NL4-3 (on virus particles) (HIV-1 (NL4-3)); assay: immunoblot with 2G12, band value, 4th column: Day 5, + MoMo30 by the order of the lanes above
[3] = target: gp120 of HIV-1NL4-3 (on virus particles) (HIV-1 (NL4-3)); assay: immunoblot with 2G12, band value, 3rd column: Day 12, - MoMo30 by the order of the lanes above
[4] = target: gp120 of HIV-1NL4-3 (on virus particles) (HIV-1 (NL4-3)); assay: immunoblot with 2G12, band value, 1st column: Day 5, - MoMo30 by the order of the lanes above
[5] = target: gp120 of HIV-1NL4-3 (on virus particles) (HIV-1 (NL4-3)); assay: immunoblot with 2G12, band value, 6th column: Day 12, + MoMo30 by the order of the lanes above
[6] = target: gp120 of HIV-1NL4-3 (on virus particles) (HIV-1 (NL4-3)); assay: immunoblot with 2G12, band value, 5th column: Day 8, + MoMo30 by the order of the lanes above

Substance “monoclonal antibody 2G12 (AIDS reagent program; cat #1476)” has a gp120 (row of the table under the blot) [1] of 51, a gp120 (row of the table under the blot) [2] of 87 and a gp120 (row of the table under the blot) [3] of 100. The gp120 (row of the table under the blot) [4] was 65, the gp120 (row of the table under the blot) [5] was 16 and the gp120 (row of the table under the blot) [6] was 51.
